# According to patent US20240261333A1, “NOVEL TARGETS FOR ENHANCING ANTI-TUMOR IMMUNITY” (THE BROAD INSTITUTE, INC., priority 2021, published 2024):
# How the values were obtained:
# LOXL4 = LOXL4 (UniProt Q96JB6); experiment: co-IP, anti-FLAG, lysate of N-FLAG B3GNT2 cells, mass spectrometry
# SLC25A10 = SLC25A10 (UniProt Q9UBX3); experiment: as above
# EIF3I (human) = EIF3I (human) (UniProt Q13347); experiment: co-IP with mouse anti-FLAG from lysate of cells overexpressing C-FLAG B3GNT2, then mass spectrometry
# RPL18 (human) = RPL18 (human) (UniProt Q07020); experiment: co-IP, anti-FLAG, lysate of cells with C-FLAG B3GNT2; mass spectrometry
# RPL10 (human) = RPL10 (human) (UniProt P27635); experiment: as above
# EIF5B (human) = EIF5B (human) (UniProt O60841); experiment: as above
# SPTAN1 (human) = SPTAN1 (human) (UniProt Q13813); experiment: as above
# DNAJC3 (human) = DNAJC3 (human) (UniProt Q13217); experiment: as above
# RPS28 (human) = RPS28 (human) (UniProt P62857); experiment: as above
# ARPC4 (human) = ARPC4 (human) (UniProt P59998); experiment: as above
# HADHB (human) = HADHB (human) (UniProt P55084); experiment: as above
# LSM12 (human) = LSM12 (human) (UniProt Q3MHD2); experiment: as above
# KRT4 (human) = KRT4 (human) (UniProt P19013); experiment: as above
# RPL4 (human) = RPL4 (human) (UniProt P36578); experiment: as above
# SERBP1 (human) = target: T1, SERBP1 (human) (UniProt Q8NC51); experiment: as above
# T1 sequence (looked up): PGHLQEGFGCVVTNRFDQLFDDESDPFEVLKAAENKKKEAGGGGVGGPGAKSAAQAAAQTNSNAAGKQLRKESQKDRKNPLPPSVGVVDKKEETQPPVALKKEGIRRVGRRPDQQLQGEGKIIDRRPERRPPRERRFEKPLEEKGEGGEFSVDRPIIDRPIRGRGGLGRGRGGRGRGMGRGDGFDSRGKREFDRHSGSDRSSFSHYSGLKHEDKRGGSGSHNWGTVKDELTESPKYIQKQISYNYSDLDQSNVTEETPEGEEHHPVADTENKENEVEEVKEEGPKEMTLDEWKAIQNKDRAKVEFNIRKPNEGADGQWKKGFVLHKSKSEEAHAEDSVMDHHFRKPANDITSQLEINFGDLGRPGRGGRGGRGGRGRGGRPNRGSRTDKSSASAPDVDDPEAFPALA
# PUM1 (human) = PUM1 (human) (UniProt Q14671); experiment: as above
# HSPA8 (human) = HSPA8 (human) (UniProt P11142); experiment: as above
# PARP1 (human) = PARP1 (human) (UniProt P09874); experiment: as above
# MOV10 (human) = target: T2, MOV10 (human) (UniProt Q9HCE1); experiment: as above
# T2 sequence (looked up): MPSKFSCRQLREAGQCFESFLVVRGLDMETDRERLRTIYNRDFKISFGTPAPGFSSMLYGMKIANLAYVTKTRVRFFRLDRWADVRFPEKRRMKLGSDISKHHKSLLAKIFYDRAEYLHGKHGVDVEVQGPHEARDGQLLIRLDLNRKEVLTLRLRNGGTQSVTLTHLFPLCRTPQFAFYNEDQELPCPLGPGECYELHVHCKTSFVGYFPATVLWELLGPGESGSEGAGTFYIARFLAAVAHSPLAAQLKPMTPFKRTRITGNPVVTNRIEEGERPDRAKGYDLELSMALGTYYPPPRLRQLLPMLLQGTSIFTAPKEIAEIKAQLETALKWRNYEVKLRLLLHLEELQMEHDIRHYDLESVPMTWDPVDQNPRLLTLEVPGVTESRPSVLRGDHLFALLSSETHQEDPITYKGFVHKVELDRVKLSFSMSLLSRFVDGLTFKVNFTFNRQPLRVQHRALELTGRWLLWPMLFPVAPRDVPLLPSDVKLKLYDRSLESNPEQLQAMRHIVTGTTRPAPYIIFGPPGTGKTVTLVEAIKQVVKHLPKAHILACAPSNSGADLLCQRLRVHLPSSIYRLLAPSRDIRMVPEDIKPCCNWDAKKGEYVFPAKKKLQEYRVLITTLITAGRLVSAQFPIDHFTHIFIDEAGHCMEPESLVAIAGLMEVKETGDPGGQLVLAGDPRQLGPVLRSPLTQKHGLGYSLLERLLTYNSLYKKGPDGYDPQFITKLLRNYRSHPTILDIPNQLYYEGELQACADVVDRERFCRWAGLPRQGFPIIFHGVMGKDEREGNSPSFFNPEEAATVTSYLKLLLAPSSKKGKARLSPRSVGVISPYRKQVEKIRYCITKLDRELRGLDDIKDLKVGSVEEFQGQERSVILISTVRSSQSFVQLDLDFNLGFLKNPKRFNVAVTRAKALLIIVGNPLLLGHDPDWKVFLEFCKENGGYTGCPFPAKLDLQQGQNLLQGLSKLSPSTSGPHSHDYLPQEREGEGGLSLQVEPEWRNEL
# CSE1L (human) = CSE1L (human) (UniProt P55060); experiment: as above
# RPL13 (human) = RPL13 (human) (UniProt P26373); experiment: as above
# Sequence of LSM12 (human) (Q3MHD2 2-195 limits assumed): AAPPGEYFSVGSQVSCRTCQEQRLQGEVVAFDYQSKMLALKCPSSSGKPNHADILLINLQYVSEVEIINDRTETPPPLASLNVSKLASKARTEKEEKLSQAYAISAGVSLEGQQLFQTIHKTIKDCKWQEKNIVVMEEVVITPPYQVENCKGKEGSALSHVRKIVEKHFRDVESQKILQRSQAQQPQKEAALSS
# Sequence of KRT4 (human) (P19013 whole entry): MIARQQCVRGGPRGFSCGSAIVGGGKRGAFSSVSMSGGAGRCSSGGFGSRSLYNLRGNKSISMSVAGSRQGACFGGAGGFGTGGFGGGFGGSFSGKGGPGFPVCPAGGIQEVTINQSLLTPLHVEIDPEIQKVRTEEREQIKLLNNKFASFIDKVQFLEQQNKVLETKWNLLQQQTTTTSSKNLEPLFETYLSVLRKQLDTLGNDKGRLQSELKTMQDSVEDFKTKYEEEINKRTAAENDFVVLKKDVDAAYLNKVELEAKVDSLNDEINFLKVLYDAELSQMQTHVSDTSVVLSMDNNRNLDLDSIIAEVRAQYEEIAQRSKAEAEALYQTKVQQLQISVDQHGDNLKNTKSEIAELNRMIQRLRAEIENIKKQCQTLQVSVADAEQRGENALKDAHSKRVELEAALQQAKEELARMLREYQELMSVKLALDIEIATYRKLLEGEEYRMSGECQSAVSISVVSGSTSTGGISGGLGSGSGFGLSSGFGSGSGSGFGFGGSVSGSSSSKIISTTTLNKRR
# Sequence of DNAJC3 (human) (Q13217 32-504 limits assumed): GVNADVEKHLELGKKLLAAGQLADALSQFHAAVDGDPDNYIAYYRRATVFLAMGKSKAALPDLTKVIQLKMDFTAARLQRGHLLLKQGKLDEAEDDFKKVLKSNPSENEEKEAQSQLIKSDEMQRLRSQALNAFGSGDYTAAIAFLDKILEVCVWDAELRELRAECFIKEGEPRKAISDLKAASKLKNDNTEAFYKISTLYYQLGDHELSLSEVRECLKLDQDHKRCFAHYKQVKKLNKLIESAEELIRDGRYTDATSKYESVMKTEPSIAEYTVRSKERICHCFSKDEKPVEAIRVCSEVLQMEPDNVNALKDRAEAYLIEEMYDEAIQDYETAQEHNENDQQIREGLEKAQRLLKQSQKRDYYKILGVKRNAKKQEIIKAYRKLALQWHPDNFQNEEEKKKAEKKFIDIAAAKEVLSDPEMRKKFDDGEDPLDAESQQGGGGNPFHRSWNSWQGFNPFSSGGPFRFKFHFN
# Sequence of HADHB (human) (P55084 34-474 limits assumed): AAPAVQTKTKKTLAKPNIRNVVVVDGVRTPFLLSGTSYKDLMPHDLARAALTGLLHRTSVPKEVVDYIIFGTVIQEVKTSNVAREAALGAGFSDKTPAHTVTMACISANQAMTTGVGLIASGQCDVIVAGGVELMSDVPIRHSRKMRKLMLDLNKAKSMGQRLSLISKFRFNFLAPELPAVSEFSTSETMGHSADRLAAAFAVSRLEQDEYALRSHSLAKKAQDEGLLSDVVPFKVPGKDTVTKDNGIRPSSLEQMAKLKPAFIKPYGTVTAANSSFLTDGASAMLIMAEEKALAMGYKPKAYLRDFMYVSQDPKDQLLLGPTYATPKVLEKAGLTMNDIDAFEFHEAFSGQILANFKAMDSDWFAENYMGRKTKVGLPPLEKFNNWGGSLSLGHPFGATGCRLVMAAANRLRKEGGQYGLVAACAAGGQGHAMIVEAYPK
# Sequence of PUM1 (human) (Q14671 other isoform, or with tags, fused parts or gaps limits assumed): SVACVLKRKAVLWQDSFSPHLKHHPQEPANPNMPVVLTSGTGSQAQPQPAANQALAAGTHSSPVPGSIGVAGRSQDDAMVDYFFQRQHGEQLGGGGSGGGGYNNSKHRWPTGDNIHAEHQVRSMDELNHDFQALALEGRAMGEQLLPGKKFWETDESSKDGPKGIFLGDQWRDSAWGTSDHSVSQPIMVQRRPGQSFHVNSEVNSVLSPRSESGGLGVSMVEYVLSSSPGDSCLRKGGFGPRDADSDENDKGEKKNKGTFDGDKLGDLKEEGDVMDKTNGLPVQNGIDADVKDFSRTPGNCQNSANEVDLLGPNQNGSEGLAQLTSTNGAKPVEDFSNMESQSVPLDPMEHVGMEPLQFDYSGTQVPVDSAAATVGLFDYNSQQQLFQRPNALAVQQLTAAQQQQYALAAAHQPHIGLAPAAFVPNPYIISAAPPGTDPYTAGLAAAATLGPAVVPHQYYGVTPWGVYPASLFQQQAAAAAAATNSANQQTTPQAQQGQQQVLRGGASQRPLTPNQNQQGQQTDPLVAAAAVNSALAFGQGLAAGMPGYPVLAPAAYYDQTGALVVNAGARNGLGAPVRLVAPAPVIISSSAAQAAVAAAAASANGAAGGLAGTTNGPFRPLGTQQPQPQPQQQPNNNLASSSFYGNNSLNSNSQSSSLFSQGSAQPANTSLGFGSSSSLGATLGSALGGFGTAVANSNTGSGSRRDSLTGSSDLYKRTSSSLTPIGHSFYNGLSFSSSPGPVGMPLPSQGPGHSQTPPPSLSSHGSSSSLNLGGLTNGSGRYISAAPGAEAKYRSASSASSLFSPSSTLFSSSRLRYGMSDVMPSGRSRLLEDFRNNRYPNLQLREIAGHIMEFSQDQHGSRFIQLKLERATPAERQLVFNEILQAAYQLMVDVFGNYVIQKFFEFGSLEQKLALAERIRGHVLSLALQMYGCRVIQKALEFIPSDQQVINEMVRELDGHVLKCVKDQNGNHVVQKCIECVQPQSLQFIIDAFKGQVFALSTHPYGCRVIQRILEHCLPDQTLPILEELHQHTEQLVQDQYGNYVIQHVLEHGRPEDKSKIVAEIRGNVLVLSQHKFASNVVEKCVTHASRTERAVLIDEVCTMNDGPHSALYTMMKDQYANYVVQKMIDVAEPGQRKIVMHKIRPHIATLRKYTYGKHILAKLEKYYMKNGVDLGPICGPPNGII
# Sequence of EIF3I (human) (Q13347 whole entry): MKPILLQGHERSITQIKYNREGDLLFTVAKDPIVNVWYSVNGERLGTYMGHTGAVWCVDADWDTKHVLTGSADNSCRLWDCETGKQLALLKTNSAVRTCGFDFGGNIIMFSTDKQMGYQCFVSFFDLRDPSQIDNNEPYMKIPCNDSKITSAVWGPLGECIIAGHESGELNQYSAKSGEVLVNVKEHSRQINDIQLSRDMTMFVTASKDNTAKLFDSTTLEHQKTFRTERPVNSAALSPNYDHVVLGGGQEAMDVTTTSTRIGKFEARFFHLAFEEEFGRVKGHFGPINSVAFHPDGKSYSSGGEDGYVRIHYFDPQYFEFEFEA
# Sequence of PARP1 (human) (P09874 2-1014 limits assumed): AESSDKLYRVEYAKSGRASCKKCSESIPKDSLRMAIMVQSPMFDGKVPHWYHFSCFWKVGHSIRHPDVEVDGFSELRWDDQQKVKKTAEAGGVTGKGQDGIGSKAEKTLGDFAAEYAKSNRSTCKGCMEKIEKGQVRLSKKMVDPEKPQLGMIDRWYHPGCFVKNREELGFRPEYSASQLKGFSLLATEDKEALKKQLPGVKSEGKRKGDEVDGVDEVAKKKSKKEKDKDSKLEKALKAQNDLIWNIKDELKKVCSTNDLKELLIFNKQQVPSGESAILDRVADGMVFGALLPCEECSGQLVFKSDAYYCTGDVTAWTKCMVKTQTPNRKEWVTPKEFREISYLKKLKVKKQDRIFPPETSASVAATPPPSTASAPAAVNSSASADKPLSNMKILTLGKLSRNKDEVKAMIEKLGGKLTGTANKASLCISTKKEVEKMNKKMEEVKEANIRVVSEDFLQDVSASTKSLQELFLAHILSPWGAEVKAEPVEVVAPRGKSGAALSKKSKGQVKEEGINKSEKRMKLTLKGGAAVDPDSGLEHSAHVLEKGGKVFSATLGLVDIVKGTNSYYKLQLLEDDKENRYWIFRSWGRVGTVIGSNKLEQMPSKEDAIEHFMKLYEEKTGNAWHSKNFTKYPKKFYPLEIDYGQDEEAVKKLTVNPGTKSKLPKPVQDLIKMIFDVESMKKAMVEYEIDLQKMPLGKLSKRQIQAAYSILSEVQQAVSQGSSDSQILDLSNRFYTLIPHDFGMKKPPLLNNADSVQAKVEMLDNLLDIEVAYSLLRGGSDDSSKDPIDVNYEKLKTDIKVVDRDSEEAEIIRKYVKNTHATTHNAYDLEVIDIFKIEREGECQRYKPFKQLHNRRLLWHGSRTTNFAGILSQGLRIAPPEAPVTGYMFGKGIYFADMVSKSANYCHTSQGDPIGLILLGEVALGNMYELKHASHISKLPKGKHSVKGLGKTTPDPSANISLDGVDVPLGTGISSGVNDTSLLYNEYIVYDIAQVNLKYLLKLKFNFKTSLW
# Sequence of SLC25A10 (Q9UBX3 other isoform, or with tags, fused parts or gaps limits assumed): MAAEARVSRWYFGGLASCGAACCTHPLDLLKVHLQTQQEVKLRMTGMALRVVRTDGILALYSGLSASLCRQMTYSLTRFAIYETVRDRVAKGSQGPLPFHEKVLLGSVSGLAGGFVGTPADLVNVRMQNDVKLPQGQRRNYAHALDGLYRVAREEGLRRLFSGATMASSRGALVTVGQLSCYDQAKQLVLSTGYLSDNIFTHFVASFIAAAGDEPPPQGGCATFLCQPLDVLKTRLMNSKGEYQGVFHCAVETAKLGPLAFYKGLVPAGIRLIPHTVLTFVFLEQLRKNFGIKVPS
substance,measurement,setting,value
N-terminal FLAG tagged B3GNT2 (from UniProt Q9NY97 1-397) (enzyme),co-IP/MS count,LOXL4,5
same,co-IP/MS count,SLC25A10,5
C-terminal FLAG tagged B3GNT2 (from UniProt Q9NY97 1-397) (enzyme),co-IP mass spectrometry count (C-term flag),EIF3I (human),3
same,co-IP mass spectrometry count,RPL18 (human),24
same,co-IP mass spectrometry count,RPL10 (human),15
same,co-IP mass spectrometry count,EIF5B (human),3
same,co-IP mass spectrometry count,SPTAN1 (human),3
same,co-IP mass spectrometry count,DNAJC3 (human),3
same,co-IP mass spectrometry count,RPS28 (human),3
same,co-IP mass spectrometry count,ARPC4 (human),3
same,co-IP mass spectrometry count,HADHB (human),3
same,co-IP mass spectrometry count,LSM12 (human),4
same,co-IP mass spectrometry count,KRT4 (human),37
same,co-IP mass spectrometry count,RPL4 (human),36
same,co-IP mass spectrometry count,SERBP1 (human),10
same,co-IP mass spectrometry count,PUM1 (human),3
same,co-IP mass spectrometry count,HSPA8 (human),49
same,co-IP mass spectrometry count,PARP1 (human),3
same,co-IP mass spectrometry count,MOV10 (human),3
same,co-IP mass spectrometry count,CSE1L (human),3
same,co-IP mass spectrometry count,RPL13 (human),23
